Results on four molecules are retold here after article PMC6849348, “Theranostic Application of a Novel G-Quadruplex-Forming DNA Aptamer Targeting Malate Synthase of Mycobacterium tuberculosis”.

Data set [1] deals with T1, malate synthase (MS, GlcB) (Mycobacterium tuberculosis, UniProt P9WK17 1-741). The experiment in a line: enzyme inhibition (mixed); glyoxylate, acetyl-CoA, 5 mM Mg2+. Conditions: protein: recombinant, tags: C-terminal His6.
Data set [2] concerns the target T1, malate synthase (MS, GlcB). The experiment in a line: SPR. Conditions: protein: recombinant, tags: C-terminal His6.
Data set [3] addresses T1, malate synthase (MS, GlcB). The experiment in a line: enzyme inhibition; glyoxylate, acetyl-CoA, 5 mM Mg2+. Conditions: protein: recombinant, tags: C-terminal His6.
Data set [4] deals with T1, malate synthase (MS, GlcB). The experiment in a line: ALISA. The settings on record: protein: recombinant; tags: C-terminal His6.
Where [5] appears, read: G4 parallel (CD, NMR), modeled as tetramer of 4 strands.

T1 sequence (P9WK17 whole entry): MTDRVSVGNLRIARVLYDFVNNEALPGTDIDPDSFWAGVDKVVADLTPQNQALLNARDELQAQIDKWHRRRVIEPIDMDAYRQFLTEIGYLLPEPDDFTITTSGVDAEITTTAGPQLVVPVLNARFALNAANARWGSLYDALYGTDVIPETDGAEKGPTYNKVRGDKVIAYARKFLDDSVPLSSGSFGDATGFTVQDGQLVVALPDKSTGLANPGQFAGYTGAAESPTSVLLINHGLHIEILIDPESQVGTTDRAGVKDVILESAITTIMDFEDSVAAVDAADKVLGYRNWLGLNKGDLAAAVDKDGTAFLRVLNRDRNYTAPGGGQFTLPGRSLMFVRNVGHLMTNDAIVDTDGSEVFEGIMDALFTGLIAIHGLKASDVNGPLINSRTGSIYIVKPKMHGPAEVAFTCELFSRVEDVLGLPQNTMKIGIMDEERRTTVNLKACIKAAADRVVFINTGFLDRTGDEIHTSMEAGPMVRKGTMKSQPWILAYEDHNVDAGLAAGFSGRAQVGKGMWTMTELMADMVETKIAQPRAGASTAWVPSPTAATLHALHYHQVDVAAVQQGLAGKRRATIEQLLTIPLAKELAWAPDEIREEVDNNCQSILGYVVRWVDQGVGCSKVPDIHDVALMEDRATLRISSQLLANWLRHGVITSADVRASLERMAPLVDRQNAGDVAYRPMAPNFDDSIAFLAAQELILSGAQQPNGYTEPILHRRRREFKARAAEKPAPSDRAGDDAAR

Take GGTGGTGGTGG (structured_DNA) [MS10-Trunc]: the Ki (usually the equilibrium dissociation constant of an inhibitor or competing ligand from its target) in data set [1] (setting [5]) came to 230 nM. Further, the Kd – broadly, a measure of binding affinity in units of concentration – in data set [2] (setting [5]) is 0.019 nM. The IC50 (in general, the concentration needed to halve the response being measured) in data set [3] (setting [5]) was 251 nM.

In the case of GGTGTGTTGACTGAGGGGGTGGGGTGGGTGGTGGTGGATATAGC (structured_DNA) [MS10], the Ki in data set [1] (G4, parallel (CD)) stood at 270 nM. Besides, in data set [2] (G4, parallel (CD)), the Kd amounted to 12 nM. For the same molecule, in data set [3] (G4, parallel (CD)), the IC50 is 276 nM.

For the molecule GGTGGTGGGG (structured_DNA) [MS10-Trunc dT9], in data set [4], the binding result is listed as “binds”.

With GGGGTGGTGG (structured_DNA) [MS10-Trunc dT3], the binding result in data set [4] was “binds”.
